From IntAct's records for PubMed 32073997

B1: AKT-interacting protein (Homo sapiens), Q9H8T0 (parent)
chain: MNPFWSMSTSSVRKRSEGEEKTLTGDVKTSPPRTAPKKQLPSIPKNALPITKPTSPAPAAQSTNGTHASYGPFYLEYSLLAEFTLVVKQKLPGVYVQPSYRSALMWFGVIFIRHGLYQDGVFKFTVYIPDNYPDGDCPRLVFDIPVFHPLVDPTSGELDVKRAFAKWRRNHNHIWQVLMYARRVFYKIDTASPLNPEAAVLYEKDIQLFKSKVVDSVKVCTARLFDQPKIEDPYAISFSPWNPSVHDEAREKMLTQKKPEEQHNKSVHVAGLSWVKPGSVQPFSKEEKTVAT
partner: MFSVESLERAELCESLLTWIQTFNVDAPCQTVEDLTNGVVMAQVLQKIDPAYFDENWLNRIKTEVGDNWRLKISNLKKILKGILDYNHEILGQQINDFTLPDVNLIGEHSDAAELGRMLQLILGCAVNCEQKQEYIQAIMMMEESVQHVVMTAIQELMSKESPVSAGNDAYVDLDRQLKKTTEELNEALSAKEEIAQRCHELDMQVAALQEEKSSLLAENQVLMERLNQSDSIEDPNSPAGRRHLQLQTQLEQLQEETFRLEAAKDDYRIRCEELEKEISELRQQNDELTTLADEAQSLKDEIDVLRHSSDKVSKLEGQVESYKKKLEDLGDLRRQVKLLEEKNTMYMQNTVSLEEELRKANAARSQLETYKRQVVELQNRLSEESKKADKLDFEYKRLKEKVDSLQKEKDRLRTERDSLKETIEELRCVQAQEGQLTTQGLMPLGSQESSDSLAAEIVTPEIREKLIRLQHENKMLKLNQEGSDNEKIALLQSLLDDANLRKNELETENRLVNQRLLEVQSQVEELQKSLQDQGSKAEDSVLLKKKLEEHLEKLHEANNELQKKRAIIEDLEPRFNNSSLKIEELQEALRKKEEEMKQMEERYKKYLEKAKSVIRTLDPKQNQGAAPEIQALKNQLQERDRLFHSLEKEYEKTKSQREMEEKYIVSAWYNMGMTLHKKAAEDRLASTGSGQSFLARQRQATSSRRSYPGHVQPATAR
B2: AKT-interacting protein (Homo sapiens), Q9H8T0 (parent)
chain: B1 chain
partner: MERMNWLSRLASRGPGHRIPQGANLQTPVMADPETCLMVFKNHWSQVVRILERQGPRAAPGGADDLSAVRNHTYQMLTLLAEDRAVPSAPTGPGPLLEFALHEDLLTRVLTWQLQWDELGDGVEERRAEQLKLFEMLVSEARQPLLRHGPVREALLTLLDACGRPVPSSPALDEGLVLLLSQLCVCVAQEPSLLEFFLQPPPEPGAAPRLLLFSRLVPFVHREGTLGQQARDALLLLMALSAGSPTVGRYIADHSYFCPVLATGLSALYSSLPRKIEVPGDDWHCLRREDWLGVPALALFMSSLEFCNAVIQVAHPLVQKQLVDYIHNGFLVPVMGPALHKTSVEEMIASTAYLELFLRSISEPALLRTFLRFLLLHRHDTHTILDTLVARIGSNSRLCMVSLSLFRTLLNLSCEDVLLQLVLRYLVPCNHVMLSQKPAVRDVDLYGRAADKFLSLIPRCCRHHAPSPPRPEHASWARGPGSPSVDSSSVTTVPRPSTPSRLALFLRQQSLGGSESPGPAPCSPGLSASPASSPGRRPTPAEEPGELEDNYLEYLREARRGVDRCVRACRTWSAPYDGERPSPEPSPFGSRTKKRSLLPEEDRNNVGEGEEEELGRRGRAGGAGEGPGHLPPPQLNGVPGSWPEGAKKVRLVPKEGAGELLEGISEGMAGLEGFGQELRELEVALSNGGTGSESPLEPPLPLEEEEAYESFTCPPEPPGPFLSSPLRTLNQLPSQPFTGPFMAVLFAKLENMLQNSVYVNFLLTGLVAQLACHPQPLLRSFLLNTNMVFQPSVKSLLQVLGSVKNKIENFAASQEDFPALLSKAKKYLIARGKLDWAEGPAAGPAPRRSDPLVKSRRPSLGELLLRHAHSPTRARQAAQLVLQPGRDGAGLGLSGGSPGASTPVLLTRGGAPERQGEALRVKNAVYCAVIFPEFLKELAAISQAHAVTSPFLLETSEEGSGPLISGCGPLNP
B3: AKT-interacting protein (Homo sapiens), Q9H8T0 (parent)
chain: B1 chain
partner: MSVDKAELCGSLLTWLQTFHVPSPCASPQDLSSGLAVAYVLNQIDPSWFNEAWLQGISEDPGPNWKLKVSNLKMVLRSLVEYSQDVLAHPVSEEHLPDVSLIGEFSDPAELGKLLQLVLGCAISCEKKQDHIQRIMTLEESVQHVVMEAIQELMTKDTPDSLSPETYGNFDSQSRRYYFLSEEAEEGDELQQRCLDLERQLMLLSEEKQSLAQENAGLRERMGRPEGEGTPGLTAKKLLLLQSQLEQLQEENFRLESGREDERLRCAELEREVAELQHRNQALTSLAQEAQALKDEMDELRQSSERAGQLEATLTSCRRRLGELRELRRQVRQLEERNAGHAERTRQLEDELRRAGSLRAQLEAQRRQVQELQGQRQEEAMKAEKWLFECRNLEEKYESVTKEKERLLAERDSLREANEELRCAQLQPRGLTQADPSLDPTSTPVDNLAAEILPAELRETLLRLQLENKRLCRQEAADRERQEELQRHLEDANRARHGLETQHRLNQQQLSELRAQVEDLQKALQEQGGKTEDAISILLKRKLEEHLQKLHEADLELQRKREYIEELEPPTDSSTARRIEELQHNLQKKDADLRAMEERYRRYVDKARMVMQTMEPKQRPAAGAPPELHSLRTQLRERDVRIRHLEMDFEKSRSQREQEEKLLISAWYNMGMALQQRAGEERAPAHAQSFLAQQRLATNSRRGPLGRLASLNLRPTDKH

Variants of: B1
Conditions: with hook3_human HOOK3, Q86VS8

| Variant | effect of a mutation on the interaction |
| --- | --- |
| W106A;F107A | decreasing interaction strength |

Variants of: B2
Conditions: with FHIP1B

| Variant | effect of a mutation on the interaction |
| --- | --- |
| W106A;F107A | disrupting interaction strength |

Variants of: B3
Conditions: with hook2_human HOOK2, Q96ED9

| Variant | effect of a mutation on the interaction |
| --- | --- |
| W106A;F107A | disrupting interaction strength |
